Like-named read-outs stand apart in the source and are kept apart here. Blank lines part the entries; values can stand above or below the binder they belong to.
Key:
[1] = target: T1, recombinant human ROR2-extracellular domain (ROR2-ECD) (human, UniProt Q01974 34-403); assay: kinetic exclusion assay (KinExA), soluble recombinant ROR2
T1 construct: also called recombinant ROR2-extracellular protein; recombinant ROR2 protein
Experimental: (§1) FIGS. 4A and 4B. Affinity measurement of binding of the 6E6 and 4G9 mAb to recombinant ROR2 protein. (FIG. 4A) Analysis was performed using a KinExA 3200 instrument. The proportion of anti-human ROR2 mAb bound to particles coated with ROR2 protein (y-axis) in the presence of increasing molar (M) concentration of soluble ROR2 competitor (x-axis) is shown for 6E6 (upper panel) and 4G9 (lower panel). (FIG. 4B) Illustration of the 95% confidence interval for the measured Kd of 6E6 (upper panel) and 4G9 (lower panel) for binding to human ROR2.
(§2) Applicants assessed binding specificity and relative affinities of each mAb using recombinant ROR2-extracellular protein in an ELISA assay, in which binding was measured using decreasing/limiting amounts of ROR2 protein and assessed in combination with decreasing concentrations of each of the four mAb (FIG. 3). Higher absorbance values for 6E6 and 4G9 at both lower ROR2 protein amounts and lower concentrations of mAb, indicate these mAb have higher affinities compared to 5C11 and 5G3. Equilibrium dissociation constants (Kd) were measured in a kinetic exclusion assay (KinExA) that measures the equilibrium binding affinity and kinetics between unmodified molecules in solution.

h1-111 aa = target: T2, h1-111 aa (human;mouse, UniProt Q01974;Q9Z138); assay: dot blot; recombinant protein on nylon membrane, probed with the mAb, HRP anti-mouse IgG
T2 construct: N-terminal part of the extracellular portion;C-terminal part of the extracellular portion; A tag is not described, but the blot was also probed with an anti-his tag mAb
T2 sequence (Q01974 other isoform, or with tags, fused parts or gaps limits assumed): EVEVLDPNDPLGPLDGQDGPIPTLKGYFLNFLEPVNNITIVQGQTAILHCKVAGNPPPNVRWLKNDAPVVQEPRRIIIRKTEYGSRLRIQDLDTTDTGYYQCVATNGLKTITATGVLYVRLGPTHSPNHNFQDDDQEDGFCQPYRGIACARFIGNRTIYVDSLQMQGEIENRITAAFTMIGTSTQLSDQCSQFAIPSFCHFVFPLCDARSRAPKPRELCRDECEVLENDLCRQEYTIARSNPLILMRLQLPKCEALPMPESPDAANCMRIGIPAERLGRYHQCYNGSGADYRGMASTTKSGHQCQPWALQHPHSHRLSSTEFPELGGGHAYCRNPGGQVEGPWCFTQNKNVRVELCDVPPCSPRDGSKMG
Excerpt: (§3) FIG. 5. Identification of the binding regions of anti-human ROR2 mAb by assessment of binding to chimeric […] recombinant ROR2 protein. […] Each recombinant protein was transferred onto nylon membrane, probed with the 6E6, 4G9, 5C11, 5G3 or anti-his tag mAb, and detected with an anti-mouse IgG antibody conjugated with horse radish peroxidase, as shown in the right panel. The […] and 5C11 mAbs bind to ROR2 recombinant proteins that contain the human kringle domain.
(§4) Applicants developed a series recombinant human/mouse hybrid proteins that isolate specific domains of the human ROR2 protein. These recombinant proteins were used to identify the specific binding domains that each of the four mAb target (FIG. 5). The 6E6 and 5C11 mAb bind to the Kringle domain of human, but not mouse, ROR2. […] None of the four mAb bind mouse ROR2.

h1-160 aa = target: T3, h1-160 aa (human;mouse, UniProt Q01974;Q9Z138); assay: as above
T3 construct: N-terminal part of the extracellular portion;C-terminal part of the extracellular portion; also called chimeric human/mouse recombinant ROR2 extracellular construct with the first 160 amino acids of human ROR2
T3 sequence (Q01974 other isoform, or with tags, fused parts or gaps limits assumed): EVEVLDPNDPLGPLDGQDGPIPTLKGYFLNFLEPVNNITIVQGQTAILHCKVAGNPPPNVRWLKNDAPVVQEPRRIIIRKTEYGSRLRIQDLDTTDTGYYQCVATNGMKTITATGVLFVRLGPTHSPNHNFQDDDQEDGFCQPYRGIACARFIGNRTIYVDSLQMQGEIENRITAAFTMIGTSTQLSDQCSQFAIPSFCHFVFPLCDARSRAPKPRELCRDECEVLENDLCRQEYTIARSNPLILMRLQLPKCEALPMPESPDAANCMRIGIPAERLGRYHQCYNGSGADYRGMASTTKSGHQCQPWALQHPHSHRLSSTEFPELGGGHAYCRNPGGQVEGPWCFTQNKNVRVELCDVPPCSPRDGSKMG
Excerpt: as §3, §4

hCRD = target: T4, hCRD (mouse;human, UniProt Q9Z138;Q01974); assay: as above
T4 construct: N-terminal part of the extracellular portion;cysteine rich domain (CRD);C-terminal part of the extracellular portion; also called chimeric human/mouse recombinant ROR2 extracellular construct that contains the cysteine rich domain of human ROR2
T4 sequence (Q9Z138 other isoform, or with tags, fused parts or gaps limits assumed): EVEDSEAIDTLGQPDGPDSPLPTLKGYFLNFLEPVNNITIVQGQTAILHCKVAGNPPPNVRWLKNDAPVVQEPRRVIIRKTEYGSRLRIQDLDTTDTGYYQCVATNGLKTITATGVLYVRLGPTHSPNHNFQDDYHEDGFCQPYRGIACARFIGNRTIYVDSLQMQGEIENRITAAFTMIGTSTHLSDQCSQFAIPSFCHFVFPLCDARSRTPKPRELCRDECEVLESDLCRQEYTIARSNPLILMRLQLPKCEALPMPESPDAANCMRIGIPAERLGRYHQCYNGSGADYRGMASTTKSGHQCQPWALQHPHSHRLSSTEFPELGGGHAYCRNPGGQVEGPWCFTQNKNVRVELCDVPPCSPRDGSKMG
Excerpt: as §3, §4

[2] = target: T5, recombinant human ROR2 with methionine 386 replaced by the valine of mouse ROR2 (human, UniProt Q01974 34-403); assay: as above
T5 construct: also called human ROR2 M386V
T5 sequence (Q01974 other isoform, or with tags, fused parts or gaps limits assumed): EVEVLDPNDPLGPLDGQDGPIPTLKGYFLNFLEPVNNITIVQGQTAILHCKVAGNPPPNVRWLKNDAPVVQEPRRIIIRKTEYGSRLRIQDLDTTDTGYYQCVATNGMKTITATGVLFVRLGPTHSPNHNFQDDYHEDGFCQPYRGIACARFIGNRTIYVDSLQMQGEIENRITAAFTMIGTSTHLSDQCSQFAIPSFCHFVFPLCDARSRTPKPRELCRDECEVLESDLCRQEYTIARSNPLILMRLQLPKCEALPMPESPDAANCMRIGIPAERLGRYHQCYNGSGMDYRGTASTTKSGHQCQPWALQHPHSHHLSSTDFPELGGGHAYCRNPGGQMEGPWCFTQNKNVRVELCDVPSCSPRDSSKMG

[3] = target: T6, mouse ROR2 (recombinant extracellular portion) (mouse, UniProt Q9Z138 34-403); assay: as above
T6 sequence (Q9Z138 other isoform, or with tags, fused parts or gaps limits assumed): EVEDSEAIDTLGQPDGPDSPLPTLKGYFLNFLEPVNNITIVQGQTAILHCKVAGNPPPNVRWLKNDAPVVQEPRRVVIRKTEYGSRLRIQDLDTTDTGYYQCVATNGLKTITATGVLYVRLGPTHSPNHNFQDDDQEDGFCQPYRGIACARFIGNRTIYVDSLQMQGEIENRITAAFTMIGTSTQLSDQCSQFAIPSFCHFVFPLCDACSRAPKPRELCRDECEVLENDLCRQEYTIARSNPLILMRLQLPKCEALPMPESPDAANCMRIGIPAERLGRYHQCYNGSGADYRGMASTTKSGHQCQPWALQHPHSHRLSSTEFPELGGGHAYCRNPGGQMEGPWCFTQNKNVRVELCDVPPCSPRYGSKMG

[4] = target: T7, recombinant human ROR2 with histidine 349 replaced by the arginine of mouse ROR2 (human, UniProt Q01974 34-403); assay: as above
T7 construct: also called human ROR2 H349R
T7 sequence (Q01974 34-403 H349R limits assumed): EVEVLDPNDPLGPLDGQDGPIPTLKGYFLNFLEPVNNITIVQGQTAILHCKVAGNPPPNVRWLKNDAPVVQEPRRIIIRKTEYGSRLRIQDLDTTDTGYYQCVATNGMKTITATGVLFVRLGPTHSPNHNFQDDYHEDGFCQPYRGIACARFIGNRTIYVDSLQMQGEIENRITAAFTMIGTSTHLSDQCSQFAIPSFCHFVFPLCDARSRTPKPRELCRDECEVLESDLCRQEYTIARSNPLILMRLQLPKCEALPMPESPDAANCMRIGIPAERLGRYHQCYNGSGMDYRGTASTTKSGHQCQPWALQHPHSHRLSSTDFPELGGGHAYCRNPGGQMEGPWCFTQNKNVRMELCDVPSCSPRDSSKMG

[5] = target: T8, recombinant human ROR2 with aspartic acid 354 replaced by the glutamic acid of mouse ROR2 (human, UniProt Q01974 34-403); assay: as above
T8 construct: also called human ROR2 D354E
T8 sequence (Q01974 34-403 D354E limits assumed): as the sequence (Q01974 34-403 H349R limits assumed) above, with R316H, D321E counted along it

[6] = target: T1, recombinant human ROR2-extracellular …; assay: kinetic exclusion assay (KinExA), soluble recombinant ROR2; remark: listed apart in the source
Experimental: as §1, §2

[7] = target: T6, mouse ROR2 (recombinant extracellular …); assay: dot blot; recombinant protein on nylon membrane, probed with the mAb, HRP anti-mouse IgG; remark: listed apart in the source
Excerpt: as §3, §4

[8] = target: T1, recombinant human ROR2-extracellular …; assay: KinExA 3200 kinetic exclusion assay; free mAb captured on particles coated with ROR2 protein, soluble ROR2 as titrant
Experimental: as §1, §2

[9] = target: T1, recombinant human ROR2-extracellular …; assay: KinExA 3200 kinetic exclusion assay; free scFv captured on particles coated with recombinant ROR2 protein, soluble ROR2 as titrant
Experimental: FIGS. 12A and 12B. Affinity measurement and binding specificity of the 6E6 single chain variable fragment (scFv) for human ROR2. Analysis was performed using a KinExA 3200 instrument. (FIG. 12A) The proportion of the 6E6 anti-human ROR2 scFv bound to particles coated with recombinant ROR2 protein (y-axis) in the presence of increasing molar (M) concentration of soluble ROR2 competitor (x-axis) is shown. (FIG. 12B) Illustration of the 95% confidence interval for the measured Kd of 6E6 scFv for binding to recombinant human ROR2. (FIG. 12C) Binding of the 6E6 scFv to ROR2 was assessed by flow cytometric staining and analysis of K562 (ROR2 positive) and JEKO (ROR2 negative) cells. Cells were stained on ice for 20 minutes with ~1 ug/ml of 6E6 anti-human ROR2 scfv, washed, stained for an additional 20 minutes on ice with phycoerythrin (PE)-conjugated anti-human IgG1 antibody, washed and analyzed by flow cytometry. Shaded histograms depict the relative fluorescence intensity (x axis) of viable cells, as determined by light scatter characteristics, stained with 6E6 scfv compared to viable cells stained with the anti-human IgG1-PE antibody only (open histograms).

hKringle [10] = target: T9, hKringle (mouse;human, UniProt Q9Z138;Q01974); assay: dot blot; recombinant protein on nylon membrane, probed with the mAb, HRP anti-mouse IgG
T9 construct: N-terminal part of the extracellular portion;C-terminal part of the extracellular portion with the Kringle domain; also called chimeric human/mouse recombinant ROR2 extracellular construct that contains the Kringle domain of human ROR2
T9 sequence (Q9Z138 other isoform, or with tags, fused parts or gaps limits assumed): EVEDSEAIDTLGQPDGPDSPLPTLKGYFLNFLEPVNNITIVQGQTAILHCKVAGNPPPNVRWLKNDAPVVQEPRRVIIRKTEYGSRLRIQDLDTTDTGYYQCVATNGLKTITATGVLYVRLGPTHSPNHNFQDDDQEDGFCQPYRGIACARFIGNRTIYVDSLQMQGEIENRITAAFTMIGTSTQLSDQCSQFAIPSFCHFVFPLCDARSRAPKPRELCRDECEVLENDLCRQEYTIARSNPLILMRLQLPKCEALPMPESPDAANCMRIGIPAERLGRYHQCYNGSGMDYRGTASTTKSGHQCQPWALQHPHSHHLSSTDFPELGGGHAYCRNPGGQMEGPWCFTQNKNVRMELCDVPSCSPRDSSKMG
Excerpt: as §3, §4

hKringle [11] = target: T9, hKringle; assay: as above; remark: listed apart in the source
[12] = target: T1, recombinant human ROR2-extracellular …; assay: ELISA
[13] = target: T10, human ROR2 expressed on cells (human, UniProt Q01974 34-943); assay: flow cytometry on ROR2-expressing cells
T10 construct: Full-length human ROR2 entry; endogenous on cell lines and PDX cells, transfected in MCF7-ROR2; also called ROR2 surface antigen; human ROR2 on K562, BR1936 PDX, MCF7-ROR2 and other ROR2-expressing cell lines
T10 sequence (Q01974 34-943 limits assumed): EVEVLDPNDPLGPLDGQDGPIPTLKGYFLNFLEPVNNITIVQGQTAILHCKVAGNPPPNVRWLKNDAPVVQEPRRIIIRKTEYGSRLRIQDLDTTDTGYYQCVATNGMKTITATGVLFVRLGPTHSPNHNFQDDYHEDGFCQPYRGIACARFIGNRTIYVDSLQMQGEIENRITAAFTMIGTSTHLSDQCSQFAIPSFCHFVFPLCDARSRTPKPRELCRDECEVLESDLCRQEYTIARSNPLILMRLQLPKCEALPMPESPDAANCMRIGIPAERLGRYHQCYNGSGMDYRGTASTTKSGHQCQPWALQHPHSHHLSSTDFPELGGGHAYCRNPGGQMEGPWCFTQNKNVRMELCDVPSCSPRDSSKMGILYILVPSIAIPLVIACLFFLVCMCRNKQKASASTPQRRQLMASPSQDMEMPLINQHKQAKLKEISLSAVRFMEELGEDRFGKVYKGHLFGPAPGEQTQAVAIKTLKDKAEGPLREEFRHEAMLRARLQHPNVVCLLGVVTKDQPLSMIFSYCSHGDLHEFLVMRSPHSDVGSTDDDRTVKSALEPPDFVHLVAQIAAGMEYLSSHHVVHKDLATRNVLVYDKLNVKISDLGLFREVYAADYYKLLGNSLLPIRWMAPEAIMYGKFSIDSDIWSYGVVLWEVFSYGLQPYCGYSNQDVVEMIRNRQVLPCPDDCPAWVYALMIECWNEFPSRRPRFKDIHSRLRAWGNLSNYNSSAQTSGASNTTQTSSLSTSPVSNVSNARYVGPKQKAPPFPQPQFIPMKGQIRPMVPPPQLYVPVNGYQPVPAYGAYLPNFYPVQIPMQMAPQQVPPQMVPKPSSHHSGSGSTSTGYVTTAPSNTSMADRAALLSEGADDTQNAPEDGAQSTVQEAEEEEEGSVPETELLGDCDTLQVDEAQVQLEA

T1 sequence (Q01974 34-403 limits assumed): as the sequence (Q01974 34-403 H349R limits assumed) above, with R316H counted along it

B1: 5C11 anti-human ROR2 monoclonal antibody (antibody, IgG1, V domains shown)
VH: EVQLVESGGDLVKPGGSLKLSCAASGFTFSNYGMSWVRQTPDKRLEWVATISSGGGSTYYPDSVKGRFTISRDNAKNSLYLQMSSLKSEDTAMYYCARHPYDYGYYFDYWGQGTTLTVSS
VL: DILLTQSPDILSVSPGERVSFSCRASQSIGTSIHWYQQRTNGSPRLLIKYASESISGIPSRFSGSGSGTDFTLSINSVESEDIADYYCQQSDSWPFPFGSGTKLEKK
notes: also called 5C11 mAb
- Kd [1]: > 40 nM
- binding result (h1-111 aa): no binding
- binding result (h1-160 aa): no binding
- binding result (hCRD): no binding
- binding result [2]: no binding
- binding result [3]: no binding
- binding result [4]: no binding
- binding result [5]: no binding

B2: 6E6 anti-human ROR2 monoclonal antibody (antibody, IgG1, V domains shown)
VH: EVQLVESGGDLVKPGGSLKLSCAASGFTFSNYGMSWVRQTPDKRLEWVATISSGGGYTHYVDSVKGRFTISRDNANHILYLQMSSLNSEDTAMYYCARHPRDFSYAMDYWGQGTSVTVSS
VL: DIVMTQSHKFMSTSIGDRVSITCKASQDVGHYVAWYQQKPGQSPKLLIYWASTRHTGVPDRFTGSGSGTDFTLTISNVQSEDLADYFCQQYNIYPWTFGGGSKLAIK
notes: Used conjugated with Alexa647 in flow cytometry and with pHrodo in the internalisation assay; also called 6E6 mAb
- Kd [6]: ~0.1 nM
- Kd [1]: < 0.1 nM
- binding result (h1-111 aa): no binding
- binding result (h1-160 aa): no binding
- binding result (hCRD): no binding
- binding result [7]: no binding
- binding result [4]: no binding
- binding result [5]: no binding
- Kd [8]: 0.0556 nM

B5: 4G9 anti-human ROR2 monoclonal antibody (antibody, IgG2a, V domains shown)
VH: QVQLQQSGAELVRPGASVKLSCKALGYTFTDYEMHWVKQTPVHGLEWIGAIHPGSGGTAYNQKFKGKATLTADKSSSTAYMELSRLTSEDSAVYYCTRRRPRFYGMDYWGQGTSVTVSS
VL: DIVMTQAAPSVPVTPGESVSISCRSSKSLLHSNGNTYLYWFLQRPGQSPQLLIYRMSNLASGVPDRFSGSGSGTAFTLRISRVEAEDVGVYYCMQHLEYPLTVGAGTKLELK
notes: Used conjugated with Alexa647 in flow cytometry and with pHrodo in the internalisation assay; also called 4G9 mAb
- Kd [6]: ~2 nM
- Kd [1]: ~1.9 nM
- binding result (hCRD): no binding
- binding result (hKringle [11]): no binding
- binding result [3]: no binding
- Kd [8]: 1.9 nM

Now from value to binder:

- Kd [9]: 0.0737 nM
B3: 6E6 single chain variable fragment (scFv) (scFv)
scFv: DIVMTQSHKFMSTSIGDRVSITCKASQDVGHYVAWYQQKPGQSPKLLIYWASTRHTGVPDRFTGSGSGTDFTLTISNVQSEDLADYFCQQYNIYPWTFGGGSKLAIKGSTSGSGKPGSGEGSTKGEVQLVESGGDLVKPGGSLKLSCAASGFTFSNYGMSWVRQTPDKRLEWVATISSGGGYTHYVDSVKGRFTISRDNANHILYLQMSSLNSEDTAMYYCARHPRDFSYAMDYWGQGTSVTVSSEFLFPPKPKDTLMISRTPEVTCVVVDVSHEDPEVKFNWYVDGVEVHNAKTKPREEQYNSTYRVVSVLTVLHQDWLNGKEYKCKVSNKALPAPIEKTISKAKGQPREPQVYTLPPSREEMTKNQVSLTCLVKGFYPSDIAVEWESNGQPENNYKTTPPVLDSDGSFFLYSKLTVDESRWQQGNVFSCSVMHEALHNHYTQKSLSLSPGK
notes: scFv fused to CH2-CH3 of human IgG1; the leader is left out here; also called 6E6 scFv; 6E6 anti-human ROR2 scFv

- Kd [1]: > 40 nM
- binding result (hCRD): no binding
- binding result (hKringle [10]): no binding
- binding result [7]: no binding
B4: 5G3 anti-human ROR2 monoclonal antibody (antibody, IgG2a, V domains shown)
VH: EVQLVESGGGLVQPKGSLKLSCAASGFTFNTYAMNWVRQAPGKGLEWVARIRSKSNNYATYYADSVKDRFTISRDDSQSMLHLQMNNLKTEDTAMYYCVRHGSSLYYAMDYWGQGTSVTVSS
VL: DIQMTQSPSSLSASLGERVSLTCRASQEISGYLGWLQQKPDGTIKRLIYAASTLDSGVPKRFSGSRSGSAYSLTISSLESEDFADYYCLQYASYPYTFGGGTKLEIK
notes: also called 5G3 mAb

- binding result [12]: binds
- binding result [13]: binds
B6: 4G9 single chain variable fragment (scFv) (scFv)
scFv: DIVMTQAAPSVPVTPGESVSISCRSSKSLLHSNGNTYLYWFLQRPGQSPQLLIYRMSNLASGVPDRFSGSGSGTAFTLRISRVEAEDVGVYYCMQHLEYPLTVGAGTKLELKGSTSGSGKPGSGEGSTKGQVQLQQSGAELVRPGASVKLSCKALGYTFTDYEMHWVKQTPVHGLEWIGAIHPGSGGTAYNQKFKGKATLTADKSSSTAYMELSRLTSEDSAVYYCTRRRPRFYGMDYWGQGTSVTVSSEFLFPPKPKDTLMISRTPEVTCVVVDVSHEDPEVKFNWYVDGVEVHNAKTKPREEQYNSTYRVVSVLTVLHQDWLNGKEYKCKVSNKALPAPIEKTISKAKGQPREPQVYTLPPSREEMTKNQVSLTCLVKGFYPSDIAVEWESNGQPENNYKTTPPVLDSDGSFFLYSKLTVDESRWQQGNVFSCSVMHEALHNHYTQKSLSLSPGK
notes: scFv fused to CH2-CH3 of human IgG1; the leader is left out here; also called 4G9 scFv

From patent publication US20230192846A1 (University of California, published 2023)
